± gives the standard deviation of the averaged measurements.
Assay: total protein half-life in vivo (active degradation + dilution); higher = more stable protein
[1] = E. coli NCM3722 delta-clpP delta-lon delta-hslV, growth: N-lim chemostat, doubling time 6 h
[2] = E. coli NCM3722 delta-clpP, growth: N-lim chemostat, doubling time 6 h
[3] = E. coli NCM3722 delta-hslV, growth: N-lim chemostat, doubling time 6 h
[4] = E. coli NCM3722 delta-lon, growth: N-lim chemostat, doubling time 6 h
[5] = E. coli NCM3722 delta-smpB, growth: N-lim chemostat, doubling time 6 h
[6] = wild type E. coli NCM3722, growth: C-lim chemostat, doubling time 3 h
[7] = wild type E. coli NCM3722, growth: C-lim chemostat, doubling time 6 h
[8] = wild type E. coli NCM3722, growth: C-lim chemostat, doubling time 12 h
[9] = wild type E. coli NCM3722, growth: N-lim chemostat, doubling time 6 h
[10] = wild type E. coli NCM3722, growth: N-lim chemostat, doubling time 12 h
[11] = wild type E. coli NCM3722, growth: P-lim chemostat, doubling time 6 h
[12] = wild type E. coli NCM3722, growth: P-lim chemostat, doubling time 12 h

## MEKKHIYLFCSAGMSTSLLVSKMRAQAEKYEVPVIIEAFPETLAGEKGQNADVVLLGPQIAYMLPEIQRLLPNKPVEVIDSLLYGKVDGLGVLKAAVAAIKKAAAN
[1]
  total protein half-life in vivo: 4.43 ± 0.066 h
[2]
  total protein half-life in vivo: 3.28 ± 0.13 h
[3]
  total protein half-life in vivo: 2.92 ± 0.14 h
[4]
  total protein half-life in vivo: 4.05 ± 0.47 h
[5]
  total protein half-life in vivo: 3.16 ± 0.091 h
[6]
  total protein half-life in vivo: 2.72 ± 0.065 h
[7]
  total protein half-life in vivo: 3.64 ± 0.58 h
[8]
  total protein half-life in vivo: 6 ± 0.41 h
[9]
  total protein half-life in vivo: 2.82 ± 0.2 h
[10]
  total protein half-life in vivo: 4.37 ± 1 h
[11]
  total protein half-life in vivo: 4.042 ± 0.031 h
[12]
  total protein half-life in vivo: 7.9 ± 0.83 h

## MKSVLKVSLAALTLAFAVSSHAADKKLVVATDTAFVPFEFKQGDKYVGFDVDLWAAIAKELKLDYELKPMDFSGIIPALQTKNVDLALAGITITDERKKAIDFSDGYYKSGLLVMVKANNNDVKSVKDLDGKVVAVKSGTGSVDYAKANIKTKDLRQFPNIDNAYMELGTNRADAVLHDTPNILYFIKTAGNGQFKAVGDSLEAQQYGIAFPKGSDELRDKVNGALKTLRENGTYNEIYKKWFGTEPK [P0AEQ3]
[1]
  total protein half-life in vivo: 4.537 ± 0.04 h
[2]
  total protein half-life in vivo: 6.03 ± 2.1 h
[3]
  total protein half-life in vivo: 6.84 ± 0.17 h
[4]
  total protein half-life in vivo: 6.824 ± 0.065 h
[5]
  total protein half-life in vivo: 6.44 ± 0.68 h
[6]
  total protein half-life in vivo: 3.38 ± 0.19 h
[7]
  total protein half-life in vivo: 6.48 ± 0.26 h
[8]
  total protein half-life in vivo: 11.8 ± 1.3 h
[9]
  total protein half-life in vivo: 6.43 ± 0.32 h
[10]
  total protein half-life in vivo: 13.1 ± 0.91 h
[11]
  total protein half-life in vivo: 6.13 ± 0.34 h
[12]
  total protein half-life in vivo: 14.08 ± 0.14 h

## MSWLKEVIGTEKAVIAMCHLRALPGDPSFDAQLGMNWVIDKAWDDLMALQNGGVDAVMFSNEFSLPYLTKVRPETTAAMARIIGQLMSDIRIPFGVNVLWDPVASFDLAMATGAKFIREIFTGAYASDFGVWDTNVGETIRHQHRIGAGEVKTLFNIVPEAAVYLGNRDICSIAKSTVFNNHPDALCVSGLTAGTRTDSALLKRVKETVPDTVVLANTGVCLENVEEQLSIADGCVTATTFKKDGVFANFVDQARVSQFMEKVHHIRR
[1]
  total protein half-life in vivo: 4.34 ± 0.67 h
[6]
  total protein half-life in vivo: 1.07 ± 0.83 h
[7]
  total protein half-life in vivo: 5.65 ± 0.48 h
[8]
  total protein half-life in vivo: 8.62 ± 0.11 h
[12]
  total protein half-life in vivo: 3.45 h

## MSSLPVAAVLPELLTALDCAPQVLLSAPTGAGKSTWLPLQLLAHPGINGKIILLEPRRLAARNVAQRLAELLNEKPGDTVGYRMRAQNCVGPNTRLEVVTEGVLTRMIQRDPELSGVGLVILDEFHERSLQADLALALLLDVQQGLRDDLKLLIMSATLDNDRLQQMLPEAPVVISEGRSFPVERRYLPLPAHQRFDDAVAVATAEMLRQESGSLLLFLPGVGEIQRVQEQLASRIGSDVLLCPLYGALSLNDQRKAILPAPQGMRKVVLATNIAETSLTIEGIRLVVDCAQERVARFDPRTGLTRLITQRVSQASMTQRAGRAGRLEPGISLHLIAKEQAERAAAQSEPEILQSDLSGLLMELLQWGCSDPAQMSWLDQPPVVNLLAAKRLLQMLGALEGERLSAQGQKMAALGNDPRLAAMLVSAKNDDEAATAAKIAAILEEPPRMGNSDLGVAFSRNQPAWQQRSQQLLKRLNVRGGEADSSLIAPLLAGAFADRIARRRGQDGRYQLANGMGAMLDANDALSRHEWLIAPLLLQGSASPDARILLALLVDIDELVQRCPQLVQQSDTVEWDDAQGTLKAWRRLQIGQLTVKVQPLAKPSEDELHQAMLNGIRDKGLSVLNWTAEAEQLRLRLLCAAKWLPEYDWPAVDDESLLAALETWLLPHMTGVHSLRGLKSLDIYQALRGLLDWGMQQRLDSELPAHYTVPTGSRIAIRYHEDNPPALAVRMQEMFGEATNPTIAQGRVPLVLELLSPAQRPLQITRDLSDFWKGAYREVQKEMKGRYPKHVWPDDPANTAPTRRTKKYS
[1]
  total protein half-life in vivo: 5.57 ± 0.07 h
[2]
  total protein half-life in vivo: 5.56 ± 0.99 h
[3]
  total protein half-life in vivo: 3.91 ± 0.046 h
[4]
  total protein half-life in vivo: 4.29 ± 0.098 h
[5]
  total protein half-life in vivo: 4.21 ± 0.25 h
[6]
  total protein half-life in vivo: 2.8 ± 0.11 h
[7]
  total protein half-life in vivo: 4.648 ± 0.041 h
[8]
  total protein half-life in vivo: 9.65 ± 3.8 h
[9]
  total protein half-life in vivo: 3.97 ± 0.26 h
[10]
  total protein half-life in vivo: 6.433 ± 0.061 h
[11]
  total protein half-life in vivo: 4.905 ± 0.044 h
[12]
  total protein half-life in vivo: 9.09 ± 0.45 h

## MQQSTPYLSFRGIGKTFPGVKALTDISFDCYAGQVHALMGENGAGKSTLLKILSGNYAPTTGSVVINGQEMSFSDTTAALNAGVAIIYQELHLVPEMTVAENIYLGQLPHKGGIVNRSLLNYEAGLQLKHLGMDIDPDTPLKYLSIGQWQMVEIAKALARNAKIIAFDEPTSSLSAREIDNLFRVIRELRKEGRVILYVSHRMEEIFALSDAITVFKDGRYVKTFTDMQQVDHDALVQAMVGRDIGDIYGWQPRSYGEERLRLDAVKAPGVRTPISLAVRSGEIVGLFGLVGAGRSELMKGMFGGTQITAGQVYIDQQPIDIRKPSHAIAAGMMLCPEDRKAEGIIPVHSVRDNINISARRKHVLGGCVINNGWEENNADHHIRSLNIKTPGAEQLIMNLSGGNQQKAILGRWLSEEMKVILLDEPTRGIDVGAKHEIYNVIYALAAQGVAVLFASSDLPEVLGVADRIVVMREGEIAGELLHEQADERQALSLAMPKVSQAVA [P0AAF3]
[3]
  total protein half-life in vivo: 5.15 h
[5]
  total protein half-life in vivo: 2.45 ± 0.57 h
[6]
  total protein half-life in vivo: 2.228 ± 0.021 h
[7]
  total protein half-life in vivo: 3.922 ± 0.021 h
[8]
  total protein half-life in vivo: 5.96 ± 0.79 h
[10]
  total protein half-life in vivo: 6.06 h
[12]
  total protein half-life in vivo: 10.5 h

## MSLTELTGNPRHDQLLMLIAERGYMNIDELANLLDVSTQTVRRDIRKLSEQGLITRHHGGAGRASSVVNTAFEQREVSQTEEKKAIAEAVADYIPDGSTIFITIGTTVEHVARALLNHNHLRIITNSLRVAHILYHNPRFEVMVPGGTLRSHNSGIIGPSAASFVADFRADYLVTSVGAIESDGALMEFDVNEANVVKTMMAHARNILLVADHTKYHASAAVEIGNVAQVTALFTDELPPAALKSRLQDSQIEIILPQEDA
[1]
  total protein half-life in vivo: 5.99 ± 0.15 h
[2]
  total protein half-life in vivo: 4.97 ± 0.17 h
[3]
  total protein half-life in vivo: 5.17 ± 0.35 h
[5]
  total protein half-life in vivo: 4.98 ± 0.86 h
[6]
  total protein half-life in vivo: 2.8 ± 0.12 h
[7]
  total protein half-life in vivo: 5.113 ± 0.0071 h
[8]
  total protein half-life in vivo: 10.7 ± 0.88 h
[9]
  total protein half-life in vivo: 4.89 ± 1 h
[10]
  total protein half-life in vivo: 8.59 h
[11]
  total protein half-life in vivo: 4.9 ± 0.25 h
[12]
  total protein half-life in vivo: 8.679 ± 0.03 h

## MATGTQPDAGQILNSLINSILLIDDNLAIHYANPAAQQLLAQSSRKLFGTPLPELLSYFSLNIELMQESLEAGQGFTDNEVTLVIDGRSHILSVTAQRMPDGMILLEMAPMDNQRRLSQEQLQHAQQVAARDLVRGLAHEIKNPLGGLRGAAQLLSKALPDPSLLEYTKVIIEQADRLRNLVDRLLGPQLPGTRVTESIHKVAERVVTLVSMELPDNVRLIRDYDPSLPELAHDPDQIEQVLLNIVRNALQALGPEGGEIILRTRTAFQLTLHGERYRLAARIDVEDNGPGIPPHLQDTLFYPMVSGREGGTGLGLSIARNLIDQHSGKIEFTSWPGHTEFSVYLPIRK [P0AFB5]
[1]
  total protein half-life in vivo: 5.25 ± 0.15 h
[2]
  total protein half-life in vivo: 5.41 ± 0.72 h
[3]
  total protein half-life in vivo: 5.19 ± 0.57 h
[4]
  total protein half-life in vivo: 4.938 ± 0.023 h
[5]
  total protein half-life in vivo: 4.73 ± 0.11 h
[6]
  total protein half-life in vivo: 3.11 ± 0.38 h
[7]
  total protein half-life in vivo: 5.27 ± 0.073 h
[8]
  total protein half-life in vivo: 9.99 ± 1.6 h
[9]
  total protein half-life in vivo: 4.48 ± 0.38 h
[10]
  total protein half-life in vivo: 8.26 ± 1 h
[11]
  total protein half-life in vivo: 7.12 ± 0.5 h
[12]
  total protein half-life in vivo: 11.2 ± 2.2 h

## MMNDGKQQSTFLFHDYETFGTHPALDRPAQFAAIRTDSEFNVIGEPEVFYCKPADDYLPQPGAVLITGITPQEARAKGENEAAFAARIHSLFTVPKTCILGYNNVRFDDEVTRNIFYRNFYDPYAWSWQHDNSRWDLLDVMRACYALRPEGINWPENDDGLPSFRLEHLTKANGIEHSNAHDAMADVYATIAMAKLVKTRQPRLFDYLFTHRNKHKLMALIDVPQMKPLVHVSGMFGAWRGNTSWVAPLAWHPENRNAVIMVDLAGDISPLLELDSDTLRERLYTAKTDLGDNAAVPVKLVHINKCPVLAQANTLRPEDADRLGINRQHCLDNLKILRENPQVREKVVAIFAEAEPFTPSDNVDAQLYNGFFSDADRAAMKIVLETEPRNLPALDITFVDKRIEKLLFNYRARNFPGTLDYAEQQRWLEHRRQVFTPEFLQGYADELQMLVQQYADDKEKVALLKALWQYAEEIV
[1]
  total protein half-life in vivo: 5.14 ± 0.17 h
[2]
  total protein half-life in vivo: 4.99 ± 0.24 h
[3]
  total protein half-life in vivo: 4.41 ± 0.22 h
[5]
  total protein half-life in vivo: 3.9722 ± 0.0028 h
[6]
  total protein half-life in vivo: 3.12 ± 0.044 h
[7]
  total protein half-life in vivo: 5.87 ± 0.28 h
[8]
  total protein half-life in vivo: 9.97 ± 1.4 h
[9]
  total protein half-life in vivo: 4.297 ± 0.027 h
[10]
  total protein half-life in vivo: 6.577 ± 0.033 h
[11]
  total protein half-life in vivo: 6.73 ± 0.97 h
[12]
  total protein half-life in vivo: 12.3 ± 0.74 h
